Tests used:
[1] = biological target: 1N4R Tau (human) (UniProt P10636)
[2] = biological target: 1N3R Tau (human) (UniProt P10636)

Row | disaggregation of 1N4R Tau fibrils with HSC70, HSPA4 and ATP: Tau shifted to the supernatant fraction (centrifugation, immunoblot) [1] [%] | disaggregation of 1N3R Tau fibrils with HSC70, HSPA4 and ATP: Tau shifted to the supernatant fraction (centrifugation, immunoblot) [2] [%] | Substance
1 | 36 | 50 | DNAJB4 (from UniProt Q9UDY4 1-337) (natural protein)
2 | 26 | 50 | DNAJB1 (from UniProt P25685 1-340) (natural protein)

From publication PMC7363153
